Results on 21 molecules are retold here after patent US20240294569A1, “MODULATORS OF SORTILIN ACTIVITY” (Insusense ApS, priority 2021, published 2024).

Peptide text beside a SMILES is read from it.

The first assay concerns the target 6his-Sortilin (human) (UniProt Q99523). In words: SPA, displacement of [3H]-neurotensin from 6his-Sortilin.
Conditions: not given
(Loss of bound radioactivity is the signal in a displacement assay; it reports binding, not function.)
Regarding “(S)-2-((2S,3S)-2-((S)-3-(4-Hydroxyphenyl)-2-((R)-morpholine-3-carboxamido)propanamido)-3-methylpentanamido)-5,5-dimethylhexanoic acid (peptide)”, the IC50 (as a rule, the concentration that gives 50% inhibition) was 0.1 µM.
The same measure, in the same setting: for “(S)-2-((2S,3S)-2-((S)-3-(4-Hydroxyphenyl)-2-((R)-piperazine-2-carboxamido)propanamido)-3-methylpentanamido)-5,5-dimethylhexanoic acid (peptide)” the value was 0.11 µM; for “(S)-2-((S)-2-((S)-5-Amino-5-oxo-2-((S)-pyrrolidine-2-carboxamido)pentanamido)-3-(thiazol-4-yl)propanamido)-5,5-dimethylhexanoic acid (peptide)”, 0.06 µM; for “(S)-2-((S)-2-((S)-3-(4-Hydroxyphenyl)-2-((S)-pyrrolidine-2-carboxamido)propanamido)-3-(thiophen-3-yl)propanamido)-5,5-dimethylhexanoic acid (peptide)”, 0.14 µM.
Consider “(S)-2-((2S,3S)-2-((S)-3-(4-Hydroxyphenyl)-2-((S)-piperazine-2-carboxamido)propanamido)-3-methylpentanamido)-5,5-dimethylhexanoic acid (peptide)”, for which the IC50 was 0.1 µM.
On the same count and under the same terms, then “(2S)-5,5-Dimethyl-2-((3S)-3-methyl-2-((S)-2-((S)-pyrrolidine-2-carboxamido)propanamido)pentanamido)hexanoic acid (peptide)”, with 0.07 µM; and “(S)-2-((S)-2-((S)-3-(4-Hydroxyphenyl)-2-((S)-pyrrolidine-2-carboxamido)propanamido)-3-(pyridin-3-yl)propanamido)-5,5-dimethylhexanoic acid (peptide)”, with 0.09 µM; and “(S)-2-((S)-2-((S)-3-(4-Hydroxyphenyl)-2-((S)-pyrrolidine-2-carboxamido)propanamido)-3-(1-methyl-1H-imidazol-5-yl)propanamido)-5,5-dimethylhexanoic acid.di-formic acid (peptide)”, with 0.1 µM.
On the same count and under the same terms, then “(S)-2-((S)-2-((S)-3-(4-Hydroxyphenyl)-2-((S)-pyrrolidine-2-carboxamido)propanamido)-3-morpholinopropanamido)-5,5-dimethylhexanoic acid (peptide)”, with 0.16 µM.
Still for that read-out and setting: for “(S)-2-((2S,3S)-2-((S)-3-(4-Hydroxyphenyl)-2-((S)-morpholine-2-carboxamido)propanamido)-3-methylpentanamido)-5,5-dimethylhexanoic acid (peptide)” the value was 0.07 µM; for “(S)-2-((S)-2-((S)-3-(4-Hydroxyphenyl)-2-((S)-pyrrolidine-2-carboxamido)propanamido)-3-(pyridin-4-yl)propanamido)-5,5-dimethylhexanoic acid (peptide)”, 0.2 µM; for “(S)-2-((2S,3S)-2-((S)-3-(4-Hydroxyphenyl)-2-((R)-morpholine-2-carboxamido)propanamido)-3-methylpentanamido)-5,5-dimethylhexanoic acid (peptide)”, 0.09 µM.
As for “(S)-2-((2S,3S)-2-((S)-3-(4-Hydroxyphenyl)-2-((S)-pyrrolidine-2-carboxamido)propanamido)-3-methylpentanamido)-5,5-dimethylhexanoic acid (peptide)”, the IC50 worked out at 0.09 µM.
Same read-out and setting: for “(S)-2-((S)-2-((S)-3-(4-Hydroxyphenyl)-2-((S)-pyrrolidine-2-carboxamido)propanamido)-3-(1-methyl-1H-imidazol-4-yl)propanamido)-5,5-dimethylhexanoic acid (peptide)” the value was 0.37 µM; for “(S)-2-((S)-2-((S)-4-Amino-4-oxo-2-((S)-pyrrolidine-2-carboxamido)butanamido)-3-(thiazol-4-yl)propanamido)-5,5-dimethylhexanoic acid (peptide)”, 0.09 µM.
Same read-out and setting: then “(S)-2-((2S,3S)-2-((S)-3-(4-Hydroxyphenyl)-2-((S)-pyrrolidine-3-carboxamido)propanamido)-3-methylpentanamido)-5,5-dimethylhexanoic acid (peptide)”, with 0.15 µM; and “(S)-2-((2S,3S)-2-((S)-3-(4-Hydroxyphenyl)-2-((R)-pyrrolidine-3-carboxamido)propanamido)-3-methylpentanamido)-5,5-dimethylhexanoic acid (peptide)”, with 0.18 µM; and “(S)-2-((S)-2-((S)-3-(4-Hydroxyphenyl)-2-((S)-pyrrolidine-2-carboxamido)propanamido)-3-(1H-indol-3-yl)propanamido)-5,5-dimethylhexanoic acid (peptide)”, with 0.06 µM.
Still for that read-out and setting: then “(S)-2-((S)-2-((S)-3-(4-Hydroxyphenyl)-2-((S)-pyrrolidine-2-carboxamido)propanamido)-3-(thiazol-4-yl)propanamido)-5,5-dimethylhexanoic acid (peptide)”, with 0.07 µM.

The next assay concerns the target T1, hSortilin (Homo sapiens, UniProt Q99523).
T1 sequence (Q99523 78-831): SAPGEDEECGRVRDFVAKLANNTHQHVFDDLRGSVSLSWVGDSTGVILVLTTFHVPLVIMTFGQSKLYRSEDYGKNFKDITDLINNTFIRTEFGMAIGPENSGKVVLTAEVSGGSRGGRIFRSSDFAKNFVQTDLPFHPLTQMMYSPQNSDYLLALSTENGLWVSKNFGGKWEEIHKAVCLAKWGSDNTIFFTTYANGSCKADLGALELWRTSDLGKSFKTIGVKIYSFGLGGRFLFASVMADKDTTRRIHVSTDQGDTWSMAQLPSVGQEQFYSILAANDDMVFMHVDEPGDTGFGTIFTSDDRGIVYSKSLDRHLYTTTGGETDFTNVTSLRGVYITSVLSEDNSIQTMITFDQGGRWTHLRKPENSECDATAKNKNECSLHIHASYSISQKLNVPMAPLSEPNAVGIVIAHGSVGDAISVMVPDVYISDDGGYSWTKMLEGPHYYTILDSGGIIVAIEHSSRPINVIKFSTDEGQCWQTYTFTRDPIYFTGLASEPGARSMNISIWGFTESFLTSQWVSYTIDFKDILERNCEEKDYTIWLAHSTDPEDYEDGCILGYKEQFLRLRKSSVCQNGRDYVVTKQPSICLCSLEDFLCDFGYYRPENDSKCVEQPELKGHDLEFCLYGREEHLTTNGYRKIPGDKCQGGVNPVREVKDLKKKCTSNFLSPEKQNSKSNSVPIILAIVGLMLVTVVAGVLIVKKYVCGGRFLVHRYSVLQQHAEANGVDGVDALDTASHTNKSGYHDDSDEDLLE
In words: Neurotensin scintillation proximity assay (displacement of [3H]-neurotensin binding). The note with it: displacement of 5 nM [3H]-neurotensin from 150 nM 6his-Sortilin; average of at least 2 determinations; read-out: IC50 [3H]Neurotensin SPA. The method, then:
The data of exemplified compounds of the invention tested in a Neurotensin (NTS) scintillation proximity assay (SPA). NTS, which is a 13 amino acid neuropeptide, is a sortilin ligand. The IC50 is a measure of the amount of the compound required to inhibit the binding of NTS to sortilin by 50%.
Compound affinity was determined by measuring the displacement of [^3H]-neurotensin binding to hSortilin in SPA format. Total volume of 40 μl in 50 mM HEPES pH 7.4 assay buffer containing 100 mM NaCl, 2.0 mM CaCl2, 0.1% BSA and 0.1% Tween-20. Compound pre-incubation for 30 minutes at room temperature with 150 nM of 6his-Sortilin before 5 nM [3H]-Neurotensin and Ni chelate imaging beads (Perkin Elmer) were added, after 6 hours the plate was read on a ViewLux with 360 s exposure time. Dose-response evaluation of compounds was performed with 8 concentrations of drugs (covering 3 decades). IC50 values were calculated by nonlinear regression using the sigmoid concentration-response (variable slope) using CDD Vault software. All values reported are average of at least 2 determinations.
(SPA uses beads or plates that emit light when radiolabelled molecules are held near them.)
Turning to `CC[C@H](C)[C@H](NC(=O)[C@H](Cc1ccc(O)cc1)NC(=O)[C@H]1CNCCN1)C(=O)N[C@@H](CCC(C)(C)C)C(=O)O` [Example 18, (S)-2-((2S,3S)-2-((S)-3-(4-Hydroxyphenyl)-2-((R)-piperazine-2-carboxamido)propan amido)-3-methylpentanamido)-5,5-dimethylhexanoic acid] (HELM PEPTIDE1{[O=C([C@H]1CNCCN1)[*:2]].Y.I.[CC(C)(C)CC[C@H](N[*:1])C(=O)O]}$$$$V2.0), the IC50 worked out at 0.11 µM.
On to `CC[C@H](C)[C@H](NC(=O)[C@H](Cc1ccc(O)cc1)NC(=O)[C@@H]1CCCO1)C(=O)N[C@@H](CCC(F)(F)F)C(=O)O` [Example 1, (S)-5,5,5-Trifluoro-2-((2S,3S)-2-((S)-3-(4-hydroxyphenyl)-2-((S)-tetrahydrofuran-2-carboxamido)propanamido)-3-methylpentanamido)pentanoic acid], for which the IC50 amounted to 3.17 µM.
